We go through three proteins from ChEMBL document CHEMBL1154924, “Carbonic anhydrase activators: Activation of the beta-carbonic anhydrase from the pathogenic yeast Candida glabrata with amines and amino acids” (Bioorg Med Chem Lett, 2010).

Substrate in data set [1]: NCCc1c[nH]cn1
To be noted: Saccharomyces cerevisiae.
Description: Activity at Saccharomyces cerevisiae recombinant Nce103p

Substrate in data set [2]: NCCc1c[nH]cn1
The following applies: Nakaseomyces glabratus.
Description: Activity at Candida glabrata recombinant carbonic anhydrase

Substrate in data set [3]: NCCc1c[nH]cn1
Description: Activity at archaea Methanobacterium thermoautotrophicum recombinant carbonic anhydrase
The following applies: Methanothermobacter thermautotrophicus.

The term Km denotes the concentration of substrate that gives half-maximal velocity.

B1: Carbonic anhydrase (Saccharomyces cerevisiae S288c), P53615 (protein)
chain: MSATESSSIFTLSHNSNLQDILAANAKWASQMNNIQPTLFPDHNAKGQSPHTLFIGCSDSRYNENCLGVLPGEVFTWKNVANICHSEDLTLKATLEFAIICLKVNKVIICGHTDCGGIKTCLTNQREALPKVNCSHLYKYLDDIDTMYHEESQNLIHLKTQREKSHYLSHCNVKRQFNRIIENPTVQTAVQNGELQVYGLLYNVEDGLLQTVSTYTKVTPK
For B1, the Km in data set [1] was 9.5 mM.

B2: Carbonic anhydrase (Candida glabrata CBS 138), Q6FTL6 (protein)
chain: MTKDTIFTLTGKCALDNILDANRQWAQAMHRSQPQLFPTNGQGQDPHTLFIGCSDSRYNEDCLGVLPGEIFTLKTVANICHTDDHSLLATLEFAILNLKVNRIILCGHTDCGGIKTCLLGRESIKESCPHLYEHLDDIEDLVESHESELNQLDNICSKSKLMSHRNVERQLQRLLQIPVVQDALRNSNQDHEFNIFGLVYNVDSGLVDVVREVYGNQQK
For the protein B2, the Km in data set [2] amounted to 7.9 mM.

B3: Carbonic anhydrase (Methanobacterium thermoautotrophicum), Q50565 (protein)
chain: MRFVSMIIKDILRENQDFRFRDLSDLKHSPKLCIITCMDSRLIDLLERALGIGRGDAKVIKNAGNIVDDGVIRSAAVAIYALGVNEIIIVGHTDCGMARLDEDLIVSRMRELGVEEEVIENFSIDVLNPVGDEEENVIEGVKRLKSSPLIPESIGVHGLIIDINTGRLKPLYLDED
B3: the Michaelis constant (Km) in data set [3] is 1.7 mM.
